In this data set the target is T1, RORα1 (NR1F1) (human, UniProt P35398 1-523).
T1 sequence: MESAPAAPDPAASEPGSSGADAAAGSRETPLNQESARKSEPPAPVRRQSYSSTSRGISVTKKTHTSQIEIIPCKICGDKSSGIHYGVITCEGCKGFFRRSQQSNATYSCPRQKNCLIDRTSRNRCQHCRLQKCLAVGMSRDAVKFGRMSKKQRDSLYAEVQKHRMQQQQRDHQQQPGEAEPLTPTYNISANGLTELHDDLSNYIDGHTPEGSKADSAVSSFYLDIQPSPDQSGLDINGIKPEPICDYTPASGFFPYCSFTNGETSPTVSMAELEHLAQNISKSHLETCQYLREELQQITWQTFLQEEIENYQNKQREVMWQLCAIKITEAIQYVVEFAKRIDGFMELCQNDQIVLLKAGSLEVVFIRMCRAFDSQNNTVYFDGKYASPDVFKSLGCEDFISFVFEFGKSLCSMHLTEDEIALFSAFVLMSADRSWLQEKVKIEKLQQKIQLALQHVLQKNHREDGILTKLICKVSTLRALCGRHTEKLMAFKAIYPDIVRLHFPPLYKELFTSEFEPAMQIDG
Put plainly: EMSA; 15 mM Tris-HCl pH 7.5, 50 mM KCl, 15 mM NaCl, 1 mM MgCl2, 0.03 mM EDTA, 1 mM DTT, 7% glycerol, 50 ng poly(dI-dC), 50 ng unspecific ss oligonucleotides, 0.15 ng. The conditions noted are these: protein: ivt; label: 32P (Klenow fill-in, [α-32P]-dATP) when used as probe.

B1: SPARC-RORE (dsDNA)
DNA 1: CGGTAGGCTGTTCTGGGTCATCCCTCCAGG
DNA 2: ACGTCCTGGAGGGATGACCCAGAACAGCCT
In the case of B1, the binding result was “binds”.
